In article PMC5668902:

Substrate: O=C(O)C(=O)O
Assay: purified protein
Details: pH 4.2 acetate buffer, 25 °C, free enzyme, not immobilised

B1: Oxalate decarboxylase (OxDC), wild type, His6-tagged (Bacillus subtilis subsp. subtilis str. 168) (protein)
chain: MKKQNDIPQPIRGDKGATVKIPRNIERDRQNPDMLVPPETDHGTVSNMKFSFSDTHNRLEKGGYAREVTVRELPISENLASVNMRLKPGAIRELHWHKEAEWAYMIYGSARVTIVDEKGRSFIDDVGEGDLWYFPSGLPHSIQALEEGAEFLLVFDDGSFSENSTFQLTDWLAHTPKEVIAANFGVTKEEISNLPGKEKYIFENQLPGSLKDDIVEGPNGEVPYPFTYRLLEQEPIESEGGKVYIADSTNFKVSKTIASALVTVEPGAMRELHWHPNTHEWQYYISGKARMTVFASDGHARTFNYQAGDVGYVPFAMGHYVENIGDEPLVFLEIFKDDHYADVSLNQWLAMLPETFVQAHLDLGKDFTDVLSKEKHPVVKKKCSK
Km: 12 ± 3 mM
kcat: 158 ± 13 s⁻¹
kcat/Km: 13000 ± 3000 M⁻¹ s⁻¹
